This series concerns the molecule itself. The experiment in a line: crystal structure; crystals of the SoIPMDH-IPM complex, space group C2, room temperature, in a glass capillary (0.1 MPa) or a diamond anvil cell (160, 340, 410, 580 and 650 MPa); 18% PEG 3350, 100 mM Na HEPES pH 7.0, 200 mM calcium acetate, 10 mM magnesium chloride, 10 mM IPM.

B1: 3-isopropylmalate dehydrogenase (IPMDH) from Shewanella oneidensis MR-1 (enzyme)
chain: SYQIAVLAGDGIGPEVMAEARKVLKAVEARFGLNIEYTEYDVGGIAIDNHGCPLPEATLKGCEAADAILFGSVGGPKWEKLPPNEQPERGALLPLRGHFELFCNLRPAKLHDGLEHMSPLRSDISARGFDVLCVRELTGGIYFGKPKGRQGEGESEEAFDTMRYSRREISRIARIAFEAARGRRKKVTSVDKANVLACSVLWRQVVEEVAVDFPDVELEHIYIDNATMQLLRRPDEFDVMLCSNLFGDILSDEIAMLTGSMGLLSSASMNSTGFGLFEPAGGSAPDIAGKGIANPIAQILSAALMLRHSLKQEEAASAIERAVTKALNSGYLTGELLSSDQRHKAKTTVQMGDFIADAVKAGV
notes: 3-isopropylmalate dehydrogenase, product of the leuB gene of Shewanella oneidensis MR-1, subcloned into the BamHI/HindIII sites of pQE-80L (vector pQE-MR1-leuB); Crystallised in complex with its substrate 3-isopropylmalate (IPM) and a divalent cation; the two subunits of the dimer are related by the crystallographic twofold axis; also called SoIPMDH
In the case of B1, the “stoichiometry N” value was found to be 2.

Usually stoichiometry N stands for the number of molecules, sites or subunits per partner or assembly.

Values taken from paper PMC3282623, “High-pressure-induced water penetration into 3-isopropylmalate dehydrogenase” (Acta Crystallographica Section D: Biological Crystallography, 2012).
